Experiment [1] relates to fLuc+ OCIM1 cells. Briefly: AML model in NSG mice, treatment the day after cell injection. To be noted: for tumor (bioluminescence) signal: 1 mg/kg or 5 mg/kg i.v. the day after OCIM1 injection; for mice developing tumor / tumor signal: 1 mg/kg or 5 mg/kg i.v., cohorts of 5 mice. Format: in vivo. As to the method: (§1) NSG mice were transplanted with 7.5×10^6 luciferase expressing fLuc+ OCIM1 cells i.v. On the following day, unconjugated rat IgG2b antibodies or ADCs were injected i.v. via a tail vein at a dose of 1 mg/kg or 5 mg/kg. Mice were regularly monitored for signs of morbidity for the duration of the experiment. For imaging, mice were injected intraperitoneally with 200 μl of 15 mg/mL D-luciferin (Regis Technologies) in PBS. Mice were subsequently anesthetized with 4% isoflurane and maintained at 2% isoflurane. Ten minutes after injection of D-luciferin, mice were placed with anterior side up inside a IVIS Lumina III (PerkinElmer). A sub-saturating image was captured using the auto-exposure setting in the Living Image software (v4.5). Quantification and preparation of images was also carried out using the same software.

Experiment [2] concerns OCIM1 (CD45+). Briefly: Cell viability assay 72 h (PrestoBlue), OCIM1. The following applies: drug-linker B1. Format: cell-based, human. Here is the method: (§2) OCIM1, Jurkat and Nalm6 cells were seeded at 0.5×10^5/mL were cultured for 72 hours in presence of Mab or ADC or medium (in triplicate wells) in wells of flat bottom 96-well plates. 293T cells were seeded at 9.3×10^3 cells per well in flat bottom 96-well plates and allowed to adhere the plate for up to 24 hours. 293T cells were subsequently cultured with Mab or ADC or medium (in triplicate wells) for 72 hours. PrestoBlue® Cell viability Reagent (Thermo Fisher Scientific) was added to each and incubated for up to 1.5 hours. Fluorescence intensity from each well was detected using a FLUOstar OPTIMA microplate reader (BMG Labtech). Data points are mean±s.d. for representative experiments.

Experiment [3] relates to Jurkat (CD45+). Briefly: Cell viability assay 72 h (PrestoBlue), Jurkat. Format: cell-based, human. To be noted: drug-linker B1. Here is the method:
as §2

Experiment [4] deals with human CD34+ cells. Briefly: Ex vivo treatment of CD34+ cells with Mab or ADC prior to engraftment in NSG mice. The following applies: CD34+ cells treated at 1 nM and 0.1 nM for 4 hours before transplantation; week 8. Here is the method:
Adult female NSG mice were sublethally irradiated with 2.5 Gy on the day before transplantation. Cryopreserved purified CD34+ cells from mobilized peripheral blood from a normal donor were thawed and cultured in complete medium (RPMI 1640 plus 10% fetal calf serum) in presence of Mab, ADC or medium alone for 4 hours. Cells were washed in phosphate buffered saline (PBS) and 0.5×10^6 cells in PBS were injected intravenously into the tail vein of mice. Engraftment of transplanted human cells (hCD45+) in the bone marrow of mice was determined by flow cytometry at 8 weeks after transplantation.

The test system of experiment [5] is Nalm6 (CD45-). Briefly: Cell viability assay 5 days (PrestoBlue), Nalm6. Format: cell-based, human. The following applies: rat IgG2b ADC, n=3. As to the method:
(§3) OCIM1, Jurkat and Nalm6 cells were seeded at a final concentration of 1.275×10^4/mL and for 5 days in presence of rat IgG2b Mab or ADC or medium (in triplicate) in wells of flat bottom 96-well plates. 293T cells were seeded at 9.3×10^3 cells per 100 uL per well in flat bottom 96-well plates and allowed to adhere the plate for up to 24 hours. 293T cells were subsequently cultured with rat IgG2b Mabs or ADC or medium (in triplicate wells) as described above. PrestoBlue® Cell viability Reagent (Thermo Fisher Scientific) was added to each and incubated for up to 1.5 hours. Fluorescence intensity from each well was detected using a FLUOstar OPTIMA microplate reader (BMG Labtech). Data was plotted using Prism 8.0 and sigmoid dose-response non-linear regression was used to determine EC50 values. Data points are mean±s.d. for representative experiments.

Experiment [6] deals with 293T (CD45-). Put plainly: Cell viability assay 5 days (PrestoBlue), 293T. It is filed as cell-based, human. To be noted: rat IgG2b ADC, n=3. Here is the method: as §3
The subject of experiment [7] is human CD45+ cells. Put plainly: Allogeneic stem cell transplant model in humanized NSG mice (YTH24.5-B1 conditioning). Format: in vivo. The following applies: 1 mg/kg. As to the method:
Adult NSG mice (Charles River Laboratories) were sublethally irradiated with 2.5 Gy in a ^137Cs irradiator. On the following day, mice were injected with 0.5×10^6 freshly thawed cryopreserved human CD34+ cells from a health donor were injected via the tail vein in 150 μL PBS using a 29 gauge MicroFine Plus insulin syringe (BD). Engraftment of human cells in the blood was assessed periodically from 6 weeks after transplantation. At 10 weeks post-transplant, humanized NSG mice were assigned into cohorts with similar median human CD45+ cell engraftment in the blood, as determined by flow cytometry. Mice were injected with PBS or 1 mg/kg YTH24.5-B1. Sixteen 16 days after treatment, mice were transplanted with 0.5×10^6 GFP+CD34+ cells from another healthy donor. Irradiated NSG […] were also transplanted with the GFP+CD34+ from the allogeneic healthy donor as a control for engraftment of the GFP+CD34+ cells. 8 weeks after transplantation of GFP+ cells, mice were culled and blood, spleen and bone marrow taken for analysis by flow cytometry.

Experiment [8] has as its system fLuc+ OCIM1 cells. Put plainly: Established AML model in NSG mice, treatment 10 days post-injection. Format: in vivo. To be noted: cohorts of 5 mice, all tumor-bearing. Here is the method: as §1, with “7.5×10^6” for “7.5×10^6 luciferase expressing”, “At 10 days post-injection of AML cells,” for “On the following day,”, “antibody” for “rat IgG2b antibodies”

B1: YTH54.12-B1: rat IgG2b anti-CD45 antibody YTH54.12 conjugated to cleavable PBD drug-linker B1 (drawing 43) (conjugate)
heavy: EVQLVESGGGLVQPGGSMKLSCAASGFTFSDYYMAWVRQAPKKGLEWVASMSFAGSSTYYGDSVKGRFTISRDNAKTTLYLQMNSLRSEDTATYYCARMYTTDYYLYWYFDFWGPGTMVTVSSAQTTAPSVYPLAPGCGDTTSSTVTLGCLVKGYFPEPVTVTWNSGALSSDVHTFPAVLQSGLYTLTSSVTSSTWPSQTVTCNVAHPASSTKVDKKVERRNGGIGHKCPTCPTCHKCPVPELLGGPSVFIFPPKPKDILLISQNAKVTCVVVDVSEEEPDVQFSWFVNNVEVHTAQTQPREEQYNSTFRVVSALPIQHQDWMSGKEFKCKVNNKALPSPIEKTISKPKGLVRKPQVYVMGPPTEQLTEQTVSLTCLTSGFLPNDIGVEWTSNGHIEKNYKNTEPVMDSDGSFFMYSKLNVERSRWDSRAPFVCSVVHEGLHNHHVEKSISRPPGK
light: DVQMTQSPSYLAASPGESVSISCKASKSISNYLAWYQQKPGEANKILIYSGSTLQSGTPSRFSGSGSGTDFSLTIRNLEPEDFAVYYCQQYDEKPLTFGSGTKLEIKRADAAPTVSIFPPSMEQLTSGGATVVCFVNNFYPRDISVKWKIDGSEQRDGVLDSVTDQDSKDSTYSMSSTLSLTKVEYERHNLYTCEVVHKTSSSPVVKSFNRNEC
As a reminder, the EC50 is the midpoint of the concentration-response curve. A low value points to an effect from little substance. For B1, in experiment [1], the “tumor (bioluminescence) signal” value is given as “increasing tumor signal from day 18 onwards” and the “mice developing tumor / tumor signal” value was 1 out of 5. Also, in experiment [2], the “EC50 values, viability assay, OCIM1 (CD45+)” value was “low pM range”. Moreover, in experiment [3], the “EC50 values, viability assay, Jurkat (CD45+)” value is reported as “low pM range”. The “engraftment of human CD45+ cells in the bone marrow of NSG mice” value in experiment [4] is on record as “prevented engraftment”. The EC50 in experiment [5] worked out at 9.64 pM. Besides, the 50% effective concentration (EC50) in experiment [6] is greater than 6000 pM.

B2: YTH24.5-B1: rat IgG2b anti-CD45 antibody YTH24.5 conjugated to cleavable PBD drug-linker B1 (drawing 43) (conjugate)
heavy: QVNLLQSGAALVKPGASVKLSCKASSYTFTDYYIHWVKQSHGKTLEWIGYINPKSGFTNYNEKFRRKATLTVDKSTNTAYMDISRLTSEDSATYYCTRRTGVIPMDAWGQGASVTVSSAQTTAPSVYPLAPGCGDTTSSTVTLGCLVKGYFPEPVTVTWNSGALSSDVHTFPAVLQSGLYTLTSSVTSSTWPSQTVTCNVAHPASSTKVDKKVERRNGGIGHKCPTCPTCHKCPVPELLGGPSVFIFPPKPKDILLISQNAKVTCVVVDVSEEEPDVQFSWFVNNVEVHTAQTQPREEQYNSTFRVVSALPIQHQDWMSGKEFKCKVNNKALPSPIEKTISKPKGLVRKPQVYVMGPPTEQLTEQTVSLTCLTSGFLPNDIGVEWTSNGHIEKNYKNTEPVMDSDGSFFMYSKLNVERSRWDSRAPFVCSVVHEGLHNHHVEKSISRPPGK
light: DVVMTQTPVSLSVSLGGQVSISCRSSQSFVSSDGNTYLNWYLQKPGQSPQLLIYKVSNRLSGVPDRFSGSGSGTDFTLKISRVEHDDLGVYYCGQASKIPLTFGSGTKLEIKRADAAPTVSIFPPSMEQLTSGGATVVCFVNNFYPRDISVKWKIDGSEQRDGVLDSVTDQDSKDSTYSMSSTLSLTKVEYERHNLYTCEVVHKTSSSPVVKSFNRNEC
With B2, in experiment [1], the “tumor (bioluminescence) signal” value is “Low/absent tumor signal”. Besides, the “mice developing tumor / tumor signal” value in experiment [1] is 1 out of 5. In experiment [2], the “EC50 values, viability assay, OCIM1 (CD45+)” value is “low pM range”. Besides, in experiment [3], the “EC50 values, viability assay, Jurkat (CD45+)” value was “low pM range”. The “engraftment of human CD45+ cells in the bone marrow of NSG mice” value in experiment [4] is given as “prevented engraftment”. Moreover, the EC50 in experiment [5] was 9.34 pM; in experiment [6], greater than 6000 pM. Moreover, the “mean % hCD45 engraftment in the bone marrow” value in experiment [7] (8 weeks after allogeneic GFP+ cells, PBS 37.5%) is given as 9.08%. Also, the “percentage GFP+hCD45+ cells of all human CD45+ cells in bone marrow (mean)” value in experiment [7] (PBS 2.1%, irradiation control 41.3%) was 29.0%. Also, the “GFP+hCD34+ cells within the human CD34+ compartment in the bone marrow (mean)” value in experiment [7] (PBS 3.7%) was found to be 56.6%. Further, the “mice alive at 60 days” value in experiment [8] is listed as 4/5.

Source of the values: patent publication US20220096654A1, “PYRROLOBENZODIAZEPINE-ANTIBODY CONJUGATES AND USES THEREOF” (ADC THERAPEUTICS SA, priority 2020, published 2022).
